Reference: patent US20250340631A1 (HARBOUR BIOMED SHANGHAI, published 2025)

Tests used:
human CLDN18.2 = human CLDN18.2 (human); assay: cell-based or functional assay
[1] = target: T1, Biotinylated murine CD3E&D (murine, UniProt P22646 22-108; P04235 22-105, biotin label); assay: BLI (Octet), biotinylated CD3 on SA sensor
T1 construct: also called CDD-M82W5
Protocol: (§1) The binding kinetics between proteins and antibodies was analyzed by the Biolayer Interferometry (BLI) technique using an Octet Red 96e (Fortebio) system. Human CD3E (Acro, CDE-H5223), cynomolgus CD3E (Acro, CDE-C5226) and murine CD3E (Acro, CDE-M5256) were mixed with biotin (Thermo Scientific, A39257) in a molar ratio of 1:3. The mixture was incubated at 4° C. overnight, and then excess biotin was removed to obtain biotinylated CD3E. The rotation speed was set at 1000 rpm for the system. […] After being equilibrated in the buffer for 120 s, the SA sensor with captured CD3 was allowed to bind to 2-fold serially diluted antibodies. […] Finally, the SA sensor was immersed in a 10 mM glycine-hydrochloric acid solution at pH 1.5 for regeneration to elute the antibodies bound to the sensor. […] For the interactions of fast binding and fast dissociation, the “steady state” method was selected to fit the data to obtain KD(M) values.

[2] = target: T2, Human CD3E (Acro, CDE-H5223) (human, UniProt P07766 23-126, biotinylated (mixed with biotin 1:3)); assay: BLI (Octet), biotinylated CD3 on SA sensor, 1:1 global fit;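 note: antibodies applied as analyte in 2-fold serial dilutions, with a 180 s association phase followed by a 300 s dissociation phase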
T2 construct: also called Human CD3Ec
Protocol: as §1

[3] = target: T3, Cynomolgus CD3E (Acro, CDE-C5226) (cynomolgus, UniProt Q95LI5 22-117, biotinylated (mixed with biotin 1:3)); assay: as above
T3 sequence (looked up): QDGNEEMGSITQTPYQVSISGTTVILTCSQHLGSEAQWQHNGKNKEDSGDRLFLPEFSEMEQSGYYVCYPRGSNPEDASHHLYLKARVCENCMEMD
Protocol: as §1

human CLDN3 = target: T4, human CLDN3 (human, UniProt O15551 1-220); assay: FACS on HEK293 cells transiently expressing human CLDN3
T4 construct: whole, on cells; also called hCLDN3
T4 sequence (looked up): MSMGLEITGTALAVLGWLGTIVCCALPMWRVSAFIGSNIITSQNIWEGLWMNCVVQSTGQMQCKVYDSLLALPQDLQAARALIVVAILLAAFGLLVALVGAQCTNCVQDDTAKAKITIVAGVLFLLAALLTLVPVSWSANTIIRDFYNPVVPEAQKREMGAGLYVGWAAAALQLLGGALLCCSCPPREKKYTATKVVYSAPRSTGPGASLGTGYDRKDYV
Protocol: (§2) Antibodies were assayed for binding affinity to human CLDN18.2 paralogous proteins by FACS (ACEA NovoCyte). CLDN1, CLDN2, CLDN3, CLDN4, CLDN6 and CLDN9 genes of the human CLDN18.2 paralogous family were transiently transfected into HEK293 cells. […] The cell density was adjusted to 10⁶ cells/mL, and 50 μL of the cell suspension was added to each well of a 96-well plate. An antibody was diluted to 60 nM with FACS buffer, and 50 μL of the antibody dilution was added to each well of the 96-well plate. After 2 h of incubation at 4° C., the plate was washed twice with FACS buffer. Then, an FACS buffer containing a secondary antibody was added. After 1 h of incubation at 4° C., the plate was washed twice with FACS buffer. The cells were resuspended in fixative solution, and run FACS.

human CLDN6 = target: T5, human CLDN6 (human, UniProt P56747 1-220); assay: FACS on HEK293 cells transiently expressing human CLDN6
T5 construct: whole, on cells; also called hCLDN6
T5 sequence (looked up): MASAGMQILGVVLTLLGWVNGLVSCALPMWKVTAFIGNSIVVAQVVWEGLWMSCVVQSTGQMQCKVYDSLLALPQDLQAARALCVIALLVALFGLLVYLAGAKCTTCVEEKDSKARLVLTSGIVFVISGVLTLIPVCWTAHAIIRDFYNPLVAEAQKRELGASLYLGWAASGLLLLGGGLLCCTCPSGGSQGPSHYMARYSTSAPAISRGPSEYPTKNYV
Protocol: as §2

T2 sequence (P07766 23-126 limits assumed): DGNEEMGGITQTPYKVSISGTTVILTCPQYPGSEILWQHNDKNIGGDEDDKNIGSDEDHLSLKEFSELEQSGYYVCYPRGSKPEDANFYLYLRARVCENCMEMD
T1 sequence (P22646 22-108, chain 1 of 2): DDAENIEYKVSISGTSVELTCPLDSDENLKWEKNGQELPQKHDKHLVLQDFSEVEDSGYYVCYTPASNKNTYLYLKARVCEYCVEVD
T1 sequence (P04235 22-105, chain 2 of 2): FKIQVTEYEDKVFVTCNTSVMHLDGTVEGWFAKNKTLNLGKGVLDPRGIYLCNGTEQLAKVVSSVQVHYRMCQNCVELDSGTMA

Row | Binder | CDC, EC50 (nM), HEK293/hCLDN18.2 (human CLDN18.2) [nM] | binding result [1] | Kd [2] [nM] | koff [2] [s⁻¹] | kon [2] [M⁻¹ s⁻¹] | Kd [3] [nM] | koff [3] [s⁻¹] | kon [3] [M⁻¹ s⁻¹] | binding result (human CLDN3) | binding result (human CLDN6)
1 | PR006292 (bispecific antibody, human IgG1, lambda, structure 1; CD3 Fab from PR003886, CLDN18.2 VH from PR007245; IgG1 knob/hole, AAA (L234A, L235A, G237A)) EVQLVESGGGLVQPGGSLRLSCAASGFTFSSYWMHWVRQVPGKGLVWVSRISSDASRTIYADSVKGRFTISRDNAKNTLYLQMNSLRAEDTAVYYCARGEDHDILTGYPIRGQGTTVTVSSGGGGSGGGGSGGGGSEVQLVESGGGLVQPGGSLRLSCAASGFTFSSYWMHWVRQVPGKGLVWVSRISSDASRTIYADSVKGRFTISRDNAKNTLYLQMNSLRAEDTAVYYCARGEDHDILTGYPIRGQGTTVTVSSASEPKSSDKTHTCPPCPAPEAAGAPSVFLFPPKPKDTLMISRTPEVTCVVVDVSHEDPEVKFNWYVDGVEVHNAKTKPREEQYNSTYRVVSVLTVLHQDWLNGKEYKCKVSNKALPAPIEKTISKAKGQPREPQVCTLPPSREEMTKNQVSLSCAVKGFYPSDIAVEWESNGQPENNYKTTPPVLDSDGSFFLVSKLTVDKSRWQQGNVFSCSVMHEALHNHYTQKSLSLSPGK heavy: EVQLVESGGGLVQPGGSLKLSCAASGFTFSTYAMNWVRQASGKGLEWVGRIRSKYNNYATYYADSVKDRFTISRDDSKNTAYLQMNSLKTEDTAVYYCTRHGNFGNSYVSWFAYWGQGTLVTVSSASTKGPSVFPLAPSSKSTSGGTAALGCLVKDYFPEPVTVSWNSGALTSGVHTFPAVLQSSGLYSLSSVVTVPSSSLGTQTYICNVNHKPSNTKVDKKVEPKSCDKTHTCPPCPAPEAAGAPSVFLFPPKPKDTLMISRTPEVTCVVVDVSHEDPEVKFNWYVDGVEVHNAKTKPREEQYNSTYRVVSVLTVLHQDWLNGKEYKCKVSNKALPAPIEKTISKAKGQPREPQVYTLPPCREEMTKNQVSLWCLVKGFYPSDIAVEWESNGQPENNYKTTPPVLDSDGSFFLYSKLTVDKSRWQQGNVFSCSVMHEALHNHYTQKSLSLSPGK light: QAVVTQEPSLTVSPGGTVTLTCRSSTGAVTTSNYANWVQQKPGQAPRGLIGGTNKRAPWTPARFSGSLLGDKAALTLLGAQPEDEAEYFCALWYSNLWVFGGGTKLTVLGQPKAAPSVTLFPPSSEELQANKATLVCLISDFYPGAVTVAWKADSSPVKAGVETTTPSKQSNNKYAASSYLSLTPEQWKSHRSYSCQVTHEGSTVEKTVAPTECS | 37.1 | no binding (tested: 120-7.5 nM) | 99 | 0.00978 | 98900 | 140 | 0.0105 | 75100 | no binding | no binding
2 | PR006384 (bispecific antibody, human IgG1, lambda, structure 1; CD3 Fab from PR003886, CLDN18.2 VH from PR007246; AAA) EVQLVESGGGLVQPGGSLRLSCAASGFTFSSYWMHWVRQVPGKGLVWVSRISSTGSRTIYADSVKGRFTISRDNAKNTLYLQMNSLRAEDTAVYYCARGEDHDILTGYPIRGQGTTVTVSSGGGGSGGGGSGGGGSEVQLVESGGGLVQPGGSLRLSCAASGFTFSSYWMHWVRQVPGKGLVWVSRISSTGSRTIYADSVKGRFTISRDNAKNTLYLQMNSLRAEDTAVYYCARGEDHDILTGYPIRGQGTTVTVSSASEPKSSDKTHTCPPCPAPEAAGAPSVFLFPPKPKDTLMISRTPEVTCVVVDVSHEDPEVKFNWYVDGVEVHNAKTKPREEQYNSTYRVVSVLTVLHQDWLNGKEYKCKVSNKALPAPIEKTISKAKGQPREPQVCTLPPSREEMTKNQVSLSCAVKGFYPSDIAVEWESNGQPENNYKTTPPVLDSDGSFFLVSKLTVDKSRWQQGNVFSCSVMHEALHNHYTQKSLSLSPGK heavy: EVQLVESGGGLVQPGGSLKLSCAASGFTFSTYAMNWVRQASGKGLEWVGRIRSKYNNYATYYADSVKDRFTISRDDSKNTAYLQMNSLKTEDTAVYYCTRHGNFGNSYVSWFAYWGQGTLVTVSSASTKGPSVFPLAPSSKSTSGGTAALGCLVKDYFPEPVTVSWNSGALTSGVHTFPAVLQSSGLYSLSSVVTVPSSSLGTQTYICNVNHKPSNTKVDKKVEPKSCDKTHTCPPCPAPEAAGAPSVFLFPPKPKDTLMISRTPEVTCVVVDVSHEDPEVKFNWYVDGVEVHNAKTKPREEQYNSTYRVVSVLTVLHQDWLNGKEYKCKVSNKALPAPIEKTISKAKGQPREPQVYTLPPCREEMTKNQVSLWCLVKGFYPSDIAVEWESNGQPENNYKTTPPVLDSDGSFFLYSKLTVDKSRWQQGNVFSCSVMHEALHNHYTQKSLSLSPGK light: QAVVTQEPSLTVSPGGTVTLTCRSSTGAVTTSNYANWVQQKPGQAPRGLIGGTNKRAPWTPARFSGSLLGDKAALTLLGAQPEDEAEYFCALWYSNLWVFGGGTKLTVLGQPKAAPSVTLFPPSSEELQANKATLVCLISDFYPGAVTVAWKADSSPVKAGVETTTPSKQSNNKYAASSYLSLTPEQWKSHRSYSCQVTHEGSTVEKTVAPTECS |  | no binding (tested: 120-7.5 nM) | 151 | 0.0129 | 85400 | 165 | 0.0122 | 74000 | no binding | no binding
